What was measured:
[1] = target: 4E-BP1 (Calbiochem), Q13541
Chain of 4E-BP1 (Calbiochem), Q13541 (Q13541 whole entry): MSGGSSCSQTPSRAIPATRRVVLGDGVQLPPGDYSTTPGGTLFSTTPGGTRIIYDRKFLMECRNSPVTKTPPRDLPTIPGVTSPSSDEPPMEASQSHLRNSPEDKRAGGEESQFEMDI

Chain of His-S6K1C, P23443 (P23443 332-502): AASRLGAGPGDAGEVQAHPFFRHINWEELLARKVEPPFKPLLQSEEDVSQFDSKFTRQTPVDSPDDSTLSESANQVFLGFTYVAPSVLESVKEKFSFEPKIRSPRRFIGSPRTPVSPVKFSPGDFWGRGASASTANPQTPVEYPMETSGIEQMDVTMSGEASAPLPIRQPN

B1: FLAG-mTORβ (protein)
chain: MLGTGPAAATTAATTSSNVSVLQKKVTEDLSKTLLMYTVPAVQGFFRSISLSRGNNLQDTLRVLTLWFDYGHWPDVNEALVEGVKAIQIDTWLQVIPQLIARIDTPRPLVGRLIHQLLTDIGRYHPQALIYPLTVASKSTTTARHNAANKILKNMCEHSNTLVQQAMMVSEELIRVAILWHEMWHEGLEEASRLYFGERNVKGMFEVLEPLHAMMERGPQTLKETSFNQAYGRDLMEAQEWCRKYMKSGNVKDLTQAWDLYYHVFRRISKQLPQLTSLELQYVSPKLLMCRDLELAVPGTYDPNQPIIRIQSIAPSLQVITSKQRPRKLTLMGSNGHEFVFLLKGHEDLRQDERVMQLFGLVNTLLANDPTSLRKNLSIQRYAVIPLSTNSGLIGWVPHCDTLHALIRDYREKKKILLNIEHRIMLRMAPDYDHLTLMQKVEVFEHAVNNTAGDDLAKLLWLKSPSSEVWFDRRTNYTRSLAVMSMVGYILGLGDRHPSNLMLDRLSGKILHIDFGDCFEVAMTREKFPEKIPFRLTRMLTNAMEVTGLDGNYRITCHTVMEVLREHKDSVMAVLEAFVYDPLLNWRLMDTNTKGNKRSRTRTDSYSAGQSVEILDGVELGEPAHKKTGTTVPESIHSFIGDGLVKPEALNKKAIQIINRVRDKLTGRDFSHDDTLDVPTQVELLIKQATSHENLCQCYIGWCPFW
- mTOR in vitro kinase assay; immunoblot with phosphospecific antibody pT389-S6K1 (His-S6K1C, P23443): mTORβ can phosphorylate both S6K1 and 4E-BP1 in vitro, but to a lesser extent than mTORα
- mTOR in vitro kinase assay; immunoblot with phosphospecific antibody pS65-4E-BP1 [1]: mTORβ can phosphorylate both S6K1 and 4E-BP1 in vitro, but to a lesser extent than mTORα
